Measured values as given in the Immune Epitope Database (IEDB).

Experiments:
HLA-A*02:03 = test: IEDB peptide-MHC binding, purified MHC/competitive/radioactivity; filed as Kd, often an IC50 or EC50 that approximates it; ≥ and ≤ were set here for values at or beyond the usual limits of such assays
HLA-A*02:06 = test: as above
HLA-A*02:02 = test: as above
HLA-A*02:01 [1] = test: IEDB peptide-MHC binding, purified MHC/competitive/fluorescence; ≥ and ≤ were set here for values at or beyond the usual limits of such assays
HLA-B*51:01 = test: IEDB peptide-MHC binding, purified MHC/competitive/radioactivity; filed as Kd, often an IC50 or EC50 that approximates it; ≥ and ≤ were set here for values at or beyond the usual limits of such assays
HLA-B*35:01 = test: as above
HLA-B*53:01 = test: as above
HLA-A*69:01 = test: IEDB peptide-MHC binding, purified MHC/direct/fluorescence; filed as Kd, often an IC50 or EC50 that approximates it; ≥ and ≤ were set here for values at or beyond the usual limits of such assays
HLA-A*02:01 [2] = test: as above
HLA-A*03:01 = test: as above
HLA-A*26:01 = test: IEDB peptide-MHC binding, purified MHC/competitive/radioactivity; filed as Kd, often an IC50 or EC50 that approximates it; ≥ and ≤ were set here for values at or beyond the usual limits of such assays; conditions: source organism: Dengue virus 2 Peru/IQT2913/1996
HLA-A*11:01 = test: IEDB peptide-MHC binding, purified MHC/direct/fluorescence; filed as Kd, often an IC50 or EC50 that approximates it; ≥ and ≤ were set here for values at or beyond the usual limits of such assays
HLA-A*01:01 = test: IEDB peptide-MHC binding, purified MHC/competitive/radioactivity; filed as Kd, often an IC50 or EC50 that approximates it; ≥ and ≤ were set here for values at or beyond the usual limits of such assays
HLA-B*07:02 [3] = test: IEDB peptide-MHC binding, purified MHC/direct/fluorescence; filed as Kd, often an IC50 or EC50 that approximates it; ≥ and ≤ were set here for values at or beyond the usual limits of such assays
HLA-B*07:02 [4] = test: IEDB peptide-MHC binding, purified MHC/competitive/radioactivity; filed as Kd, often an IC50 or EC50 that approximates it; ≥ and ≤ were set here for values at or beyond the usual limits of such assays; conditions: source organism: Dengue virus 3 Martinique/1243/1999
HLA-B*40:01 = test: IEDB peptide-MHC binding, purified MHC/direct/fluorescence; filed as Kd, often an IC50 or EC50 that approximates it; ≥ and ≤ were set here for values at or beyond the usual limits of such assays; conditions: source organism: SARS-CoV1
HLA-B*15:01 = test: as above; conditions: source organism: SARS-CoV1
HLA-B*27:05 = test: as above; conditions: source organism: SARS-CoV1
[5] = source organism: SARS coronavirus Tor2
[6] = source organism: Vaccinia virus WR
[7] = source organism: Zaire ebolavirus
[8] = source organism: Dengue virus 4 Philippines/H241/1956
[9] = source organism: Brucella abortus 2308
[10] = source organism: Mammarenavirus juninense
[11] = source organism: Dengue virus 3 Martinique/1243/1999
[12] = source organism: Dengue virus 1 Brazil/97-11/1997
[13] = source organism: Lymphocytic choriomeningitis virus (strain Armstrong)
[14] = source organism: Francisella tularensis subsp. holarctica LVS
[15] = source organism: Dengue virus 2 Jamaica/1409/1983
[16] = source organism: dengue virus type 4

## FLAFVVFLLV
HLA-A*02:03; [5]
  Kd: 0.211 µM
HLA-A*02:06; [5]
  Kd: 2.98 µM
HLA-A*02:02; [5]
  Kd: 0.00236 µM

## FLARKGIDT
HLA-A*02:03; [6]
  Kd: 0.318 µM
HLA-A*02:06; [6]
  Kd: 3.04 µM
HLA-A*02:02; [6]
  Kd: 1.02 µM

## VAFLILPQA
HLA-A*02:01 [1]; [7]
  IC50: 0.52 µM

## FPQSNSPIED
HLA-B*51:01; [8]
  Kd: ≥ 37.5 µM
HLA-B*35:01; [8]
  Kd: 0.63 µM
HLA-B*53:01; [8]
  Kd: 1.83 µM

## DLSLGNQEL
HLA-A*69:01; [9]
  Kd: ≥ 20 µM
HLA-A*02:01 [2]; [9]
  Kd: ≥ 10 µM

## TLHFLTRGK
HLA-A*03:01; [10]
  Kd: 0.344 µM

## WPLNEGVMAV
HLA-B*51:01; [11]
  Kd: 1.67 µM

## LPTYLSSRAK
HLA-B*51:01; [8]
  Kd: ≥ 49.8 µM
HLA-B*35:01; [8]
  Kd: 15.1 µM

## LPVWLSYKVA
HLA-B*35:01; [12]
  Kd: 0.864 µM

## GLRAIKSVL
HLA-A*02:01 [2]; source organism: Homo sapiens
  Kd: 5.66 µM

## CNYTKFWYV
HLA-A*02:03; [10]
  Kd: 0.794 µM
HLA-A*02:06; [10]
  Kd: 0.0345 µM
HLA-A*02:02; [10]
  Kd: 1.94 µM

## FPYSIPATL
HLA-B*51:01; [11]
  Kd: 0.089 µM
HLA-B*35:01; [11]
  Kd: 0.00199 µM
HLA-B*53:01; [11]
  Kd: 0.00215 µM

## LLFEVEQEI
HLA-A*02:01 [2]; source organism: Influenza A virus (A/Saudi Arabia/7971/2000(H1N1))
  Kd: 0.0157 µM

## ESALNDTWKI
HLA-A*26:01
  Kd: ≥ 69.7 µM

## LSAEELMSL
HLA-A*02:03; [13]
  Kd: 0.705 µM
HLA-A*02:06; [13]
  Kd: 0.0659 µM
HLA-A*02:02; [13]
  Kd: 0.0645 µM

## CLLTDTIESA
HLA-A*02:03; [6]
  Kd: 0.102 µM
HLA-A*02:06; [6]
  Kd: 0.0921 µM
HLA-A*02:02; [6]
  Kd: 0.053 µM

## GTHPTTTYK
HLA-A*03:01; source organism: Mycobacterium tuberculosis variant bovis
  Kd: 0.78 µM

## KLYGLSQGY
HLA-A*03:01; [14]
  Kd: 0.0047 µM
HLA-A*11:01; [14]
  Kd: 0.21 µM

## AFIHIPGDT
HLA-A*02:01 [1]; source organism: Variola virus
  IC50: 24.8 µM

## YTDRKWCFD
HLA-A*01:01; [11]
  Kd: 0.597 µM

## SANMDWRSLT
HLA-A*02:03; [6]
  Kd: 11.3 µM
HLA-A*02:06; [6]
  Kd: ≥ 48 µM
HLA-A*02:02; [6]
  Kd: 1.79 µM

## AINKCVDIFT
HLA-A*02:03; [6]
  Kd: ≥ 26.4 µM
HLA-A*02:06; [6]
  Kd: ≥ 38.6 µM
HLA-A*02:02; [6]
  Kd: ≥ 25.3 µM

## VTEEIAVQNW
HLA-A*01:01; [15]
  Kd: ≥ 38.7 µM

## ILKDPRIASI
HLA-A*02:03; [6]
  Kd: 1.03 µM
HLA-A*02:06; [6]
  Kd: 4 µM
HLA-A*02:02; [6]
  Kd: 3.16 µM

## NSEQGGKAY
HLA-A*01:01; [12]
  Kd: 0.482 µM

## TPEGIIPTL
HLA-B*07:02 [3]; [16]
  Kd: 9.24 µM
HLA-A*69:01; [16]
  Kd: 2.72 µM

## YAGTIKESLL
HLA-A*02:03; [6]
  Kd: 4.04 µM
HLA-A*02:06; [6]
  Kd: 1.77 µM
HLA-A*02:02; [6]
  Kd: 1.02 µM

## NPWMEDKTH
HLA-B*35:01; [12]
  Kd: 2.3 µM

## AIMTRCLAV
HLA-A*02:03; [5]
  Kd: 0.0147 µM
HLA-A*02:06; [5]
  Kd: 0.0268 µM
HLA-A*02:02; [5]
  Kd: 0.0515 µM

## RIITILQDI
HLA-A*02:03; [6]
  Kd: 0.00557 µM
HLA-A*02:06; [6]
  Kd: 0.00201 µM
HLA-A*02:02; [6]
  Kd: 0.583 µM

## SPPETQKAEL
HLA-B*07:02 [4]
  Kd: 0.0284 µM

## GANGSTAEQL
HLA-A*02:03; [6]
  Kd: ≥ 45.3 µM
HLA-A*02:06; [6]
  Kd: ≥ 55.4 µM
HLA-A*02:02; [6]
  Kd: 7.28 µM

## AARLKRSAT
HLA-A*02:03; [6]
  Kd: 10.5 µM
HLA-A*02:06; [6]
  Kd: ≥ 63.4 µM
HLA-A*02:02; [6]
  Kd: 12.5 µM

## VQQESSFVM
HLA-B*40:01
  Kd: 7.46 µM
HLA-B*15:01
  Kd: 0.0674 µM
HLA-B*27:05
  Kd: 4.77 µM
HLA-A*11:01; source organism: SARS-CoV1
  Kd: ≥ 20.7 µM
HLA-A*02:01 [2]; source organism: SARS-CoV1
  Kd: 1.07 µM

## RAADEPPLV
HLA-A*02:01 [1]; source organism: Vaccinia virus
  IC50: 2.83 µM

## KTANNYETI
HLA-A*02:03; [6]
  Kd: 0.0385 µM
HLA-A*02:06; [6]
  Kd: 0.329 µM
HLA-A*02:02; [6]
  Kd: 0.0372 µM

## QLNETIYTS
HLA-A*02:01 [1]; [7]
  IC50: 2.8 µM

## CSSISIKLT
HLA-A*02:01 [1]; source organism: Vaccinia virus Copenhagen
  IC50: ≥ 729 µM

## VSIPITAAAW
HLA-B*53:01; [15]
  Kd: 0.402 µM

## RVSENTGMGM
HLA-A*02:03; [6]
  Kd: 0.0889 µM
HLA-A*02:06; [6]
  Kd: 0.146 µM
HLA-A*02:02; [6]
  Kd: 0.839 µM

## IPERSWNSGY
HLA-B*35:01; [12]
  Kd: 0.155 µM

## GPRQWRWPL
HLA-B*07:02 [3]; source organism: Mycobacterium tuberculosis str. Haarlem
  Kd: 0.0142 µM
